Assay results taken from IntAct's records for PubMed 21572041.

B1: C-type lectin domain family 2 member D (Homo sapiens), Q9UHP7-1 (parent)
chain: MHDSNNVEKDITPSELPANPGCLHSKEHSIKATLIWRLFFLIMFLTIIVCGMVAALSAIRANCHQEPSVCLQAACPESWIGFQRKCFYFSDDTKNWTSSQRFCDSQDADLAQVESFQELNFLLRYKGPSDHWIGLSREQGQPWKWINGTEWTRQFPILGAGECAYLNDKGASSARHYTERKWICSKSDIHV

Variants of: B1
Details: with klrb1_human KLRB1, Q12918
Sequence of klrb1_human KLRB1, Q12918 (Q12918 whole entry): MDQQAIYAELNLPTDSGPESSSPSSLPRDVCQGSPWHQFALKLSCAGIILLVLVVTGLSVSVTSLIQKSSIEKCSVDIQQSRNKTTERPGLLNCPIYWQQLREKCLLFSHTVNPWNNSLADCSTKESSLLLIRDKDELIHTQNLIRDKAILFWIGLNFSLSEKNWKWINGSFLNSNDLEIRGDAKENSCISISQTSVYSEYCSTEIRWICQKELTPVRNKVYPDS

Variant | effect of a mutation on the interaction
MHDSNNVEKDITPSELPANPGCLHSKEHSIKATLIWRLFFLIMFLTIIVCGMVAALSAIRANCHQEPSVCLQAACPESWIGFQRKCFYFSDDTKNWTSSQRFCDSQDADLAQVESFQELNFLLRYKGPSDHWIGLSREQGQPWKWINGTEWTRQFPILGAGECAYLADKGASSARHYTERKWICSKSDIHV | decreasing interaction strength
MHDSNNVEKDITPSELPANPGCLHSKEHSIKATLIWRLFFLIMFLTIIVCGMVAALSAIRANCHQEPSVCLQAACPESWIGFQRKCFYFSDDTKNWTSSQRFCDSQDADLAQVESFQELNFLLRYKGPSDHWIGLSREQGQPWKWINGTEWTRQFPILGAGECAYLNDKGASSARHYTEREWICSKSDIHV | disrupting interaction strength
MHDSNNVEKDITPSELPANPGCLHSKEHSIKATLIWRLFFLIMFLTIIVCGMVAALSAIRANCHQEPSVCLQAACPESWIGFQRKCFYFSDDTKNWTSSQRFCDSQDADLAQVESFQELNFLLRYKGPSDHWIGLSREQGQPWKWINGTEWTRQFPILGAGECAALNDKGASSARHYTERKWICSKSDIHV | decreasing interaction strength
MHDSNNVEKDITPSELPANPGCLHSKEHSIKATLIWRLFFLIMFLTIIVCGMVAALSAIRANCHQEPSVCLQAACPESWIGFQRKCFYFSDDTKNWTSSQRFCDSQDADLAQVESFQELNFLLRYKGPSDHWIGLSREQGQPWKWINGTEWTRQFPILGAGECAYLNDKGASSAEHYTERKWICSKSDIHV | disrupting interaction strength
MHDSNNVEKDITPSELPANPGCLHSKEHSIKATLIWRLFFLIMFLTIIVCGMVAALSAIRANCHQEPSVCLQAACPESWIGFQRKCFYFSDDTKNWTSSQRFCDSQDADLAQVESFQELNFLLRYKGPSDHWIGLSREQGQPWKWINGTEWTRQFPILGAGECAYLNDEGASSARHYTERKWICSKSDIHV | disrupting interaction strength
MHDSNNVEKDITPSELPANPGCLHSKEHSIKATLIWRLFFLIMFLTIIVCGMVAALSAIRANCHQEPSVCLQAACPESWIGFQRKCFYFSDDTKNWTSSQRFCDSQDADLAQVESFQELNFLLRYKGPSDHWIGLSREQGQPWKWINGTEWTRQFPILGAGECAYLNDKGASSARHYTEEKWICSKSDIHV | disrupting interaction strength

Variants of: B1
Details: with klrb1_human KLRB1, Q12918
Remark: another data set of the same source

Variant | effect of a mutation on the interaction
MHDSNNVEKDITPSELPANPGCLHSKEHSIKATLIWRLFFLIMFLTIIVCGMVAALSAIRANCHQEPSVCLQAACPESWIGFQRKCFYFSDDTKNWTSSQRFCDSQDADLAQVESFQELNFLLRYKGPSDHWIGLSREQGQPWKWINGTEWTRQFPILGAGECAYLNDEGASSARHYTERKWICSKSDIHV | increasing interaction strength
